One series has as its system elastin. The experiment in a line: Elastin assay (Fastin colorimetric assay of culture media). In kind it is cell-based, human. The note with it: summary in words. The protocol:
Elastin is released by fibroblasts (soluble elastin) into the extracellular space where it is then cross-linked to other elastin proteins to form an extensive network of fibers and sheets (insoluble elastin). Soluble elastin can be readily measured from cell culture medium via a colorimetric assay.
The test materials were tested in triplicate.
In these experiments, the Biocolor Fastin Elastin Assay kits were used. A 50 μl aliquot of sample material (cell culture medium for soluble elastin) was mixed with 1.0 ml of cold Fastin Precipitating Reagent in a 1.5-ml microcentrifuge tube. […]
To release the elastin-bound dye, 1.0 ml of Fastin Destain reagent was added to each microcentrifuge tube. […] The absorbance of this solution was measured by a plate reader at 490 nm (200 μl volume read).
An elastin standard curve was generated using 12.5, 25, and 50 μg aliquots of an Elastin Standard into microcentrifuge tubes (in duplicate). These samples were treated as described above (Elastin Assay) and the absorbance values were used to generate a standard curve of known concentrations. To derive the standard curve for the elastin assay, the absorbance was plotted against the elastin concentration in μg/ml for the standards. […] Mean absorbance values for the test materials and untreated samples were then used to estimate the amount of elastin present in each sample.

Series [1] has as its system Fibroblasts (HDFn Cell Line). The experiment in a line: Initial pilot cell viability dose response (MTT assay). As to conditions: for cell viability, percent of untreated cells: 48 hours.
Procedure: Initial screening was conducted to identify a test range suitable to determine the effect of a broad range of test material concentrations on cell viability. […] Cultured fibroblasts were exposed to the test materials for 48 hours and then changes in cell viability were determined using an MTT assay (i.e., a colorimetric analysis of the metabolic activity of the cultured cells, described in greater detail below).
The purple crystals are extracted from the cells with isopropanol and the amount of crystal formation quantified spectrophotometrically. […] A decrease in color intensity can be a sign of toxicity.
Fibroblasts (Cascade Biologics, HDFn Cell Line, lot#1C0914) were seeded into the individual wells of either a 96-well plate (for the initial pilot work to determine concentration effects on cell viability) in 100 μl of Fibroblast Growth Media (FGM) or in 12-well plates (for the measurement of collagen, elastin and MMP-1) in 1.0 ml of FGM and incubated overnight at 37±2° C. and 5±1% CO2. On the following day, the medium was removed via aspiration to eliminate any non-adherent cells and replaced with fresh FGM. The cells were grown until confluent, with a media change every 48 to 72 hours. Upon reaching confluency, the cells were treated for 24 hours with Dulbecco's Modified Essential Media (DMEM) supplemented with 1.5% FBS to wash out any effects from the growth factors included in the normal FGM. After this 24-hour wash out period, the cells were treated with the test materials at the specified concentrations dissolved in DMEM with 1.5% FBS. Untreated cells (negative controls) received DMEM with 1.5% FBS. The cells were incubated for 48 hours and at the end of the incubation period cell culture medium was either discarded (pilot work) or collected and stored frozen at −75° C. The test materials were tested in triplicate.
After the 2-day incubation, the cell culture medium was removed and the fibroblasts were washed twice with PBS to remove any remaining test material. After the final wash, either 100 μl (96-well plates) or 300 μl (12-well plates) of DMEM supplemented with 0.5 mg/ml MTT were added to each well and the cells were incubated for 1 hour at 37±2° C. and 5±1% CO2. After the incubation, the DMEM/MTT solution was removed and the cells were washed again once with PBS and then either 100 μl (96-well plates) or 1 ml (12-well plates) of isopropyl alcohol were added to each well to extract the purple formazin crystals. For the 12-well plates, two hundred microliters of the isopropyl extracts was transferred to a 96-well plate. The 96-well plates were read at 540 nm using isopropyl alcohol as a blank. The mean MTT absorbance value for the negative control cells was calculated and used to represent 100% value for cell viability. The individual MTT values from the cells undergoing the various treatments were then divided by the mean value for the negative control cells and expressed as a percent, to determine the change in cell viability caused by each treatment.
The nature of series [2]: UVB protection, initial MTT assay (material applied after UVB). As to conditions: human, cultured dermal fibroblasts.
Procedure: (§1) In these experiments, the test material was tested at six concentrations with two duplicate sets of cells prepared. […] Changes in cell viability were then determined 48 hours post material application via an MTT assay, as described above.
(§2) Fibroblasts were seeded into the individual wells of a 96 well plate in 100 μl FGM, and incubated overnight at 37±2° C. and 5±1% CO2. On the following day, the media were removed via aspiration to eliminate any non-adherent cells and replaced with 100 μl of fresh FGM. The cells were grown until confluent, with a media change every 48 to 72 hours.
(§3) An UVLM-26 lamp was used as the source of UVB light. UV light intensity was measured using a UVX radiometer coupled to a UVB sensor probe (UV Products) to determine the time required to deliver an approximate dose of 50 mj/cm^2. Prior to UVB exposure, the FGM was replaced with 100 μl PBS. After exposure, the PBS was removed and replaced with FGM supplemented with either the test materials, 20 μM Trolox, or left unsupplemented. A duplicate set of cells was also prepared and treated as described above, with the exception that they were not exposed to UVB light. […] The cells were allowed to incubate with the test materials for 48 hours, and then changes in cell viability were determined via an MTT assay. […]
(§4) After the 48-hour incubation, the cell culture medium was removed and the fibroblasts were washed with PBS to remove any remaining test material. […] The 96-well plate was then read at 540 nm using isopropyl alcohol as a blank.
(§5) The mean MTT absorbance value for the negative control cells (non-UVB exposed and non test material treated cells) was calculated and used to represent 100% value for cell number. The individual MTT values from the cells undergoing the various treatments was then divided by the mean value for the negative control cells and expressed as a percent, to determine the change in cell viability caused by each treatment. MTT scores for each treatment are expressed as means±the standard deviation of the mean.
Series [3] relates to cultured dermal fibroblasts. Described as above. The note with it: Homo sapiens, Fibroblast, light or radiation study, 48 h, read-out: +UVB Percent Viability.
Procedure: as §1, §2, §3, §4, §5
The next series has as its system elastase. Description: Elastase inhibition assay (fibroblast lysate, STANA substrate). In kind it is biochemical, human. As to conditions: positive control. The protocol: The RSPP test materials were also tested to determine their effect(s) on elastase activity. In these experiments, human dermal fibroblasts were used as a source of the elastase enzyme. This enzyme was partially purified from the fibroblasts by lysing the cells in an elastase buffer and retaining the soluble portion of the lysate. Portions of this fibroblast lysate were then incubated with test materials and a synthetic elastase substrate, Suc-(Ala3)-p-Nitroaniline (STANA). Elastase acts upon this substrate to release p-nitroaniline, which can be detected spectrophotometrically by measuring the absorbance at a wavelength of 405 nm. […]
The fibroblasts were washed twice with 15 ml of phosphate buffered saline with each wash removed via aspiration. […] The protein concentration of the fibroblast lysate was determined using the Pierce BCA Protein Assay kit (see below for details) and the fibroblast lysate was stored at −75° C. until used (for up to 1 year).
Upon determining the protein concentration of the lysate, a small sample was obtained and the elastase activity of the lysate was determined at 1×, 0.5× and 0.25× concentrations. The activity was determined for each of the different concentrations in exactly the same way that the uninhibited sample was treated in the elastase assay (see below). […] After 1.25 hours, the well plate was removed and read in a 96-well plate reader at 405 nm. […]

Regarding “GC2596-26-A: monodispersed 13-mer SELP47K RSPP (Example 1)”, the “effect on elastin synthesis” value in the series with elastin is reported as “excellent increase”. For the same molecule, the “cell viability, percent of untreated cells” value in series [1] (0.0014%) is 99 ± 1%; in series [1] (0.007%), 101 ± 5%; in series [1] (0.014%) it was 99 ± 10%; in series [1] (0.07%), 96 ± 6%; in series [1] (0.14%) it was 101 ± 4%; in series [1] (0.5%), 171 ± 4%. Moreover, the “cell viability, percent of untreated cells” value in series [1] (1%) is reported as 138 ± 7%. Besides, the “effect on the number of viable cells” value in series [1] (initial dose response, summary in words) was “strongly stimulate increases in the number of viable cells”.
In the case of `Cc1c(C)c2c(c(C)c1O)CCC(C)(C(=O)O)O2` (stereo not shown) [Trolox], the viability (commonly a read-out of living cells in per cent, often relative to untreated cells) at 48 h, 20 µM in series [2] was 120 ± 11%. For the same molecule, the viability at 20 µM in series [3] is 77 ± 9%.
As for `CC(C)C[C@H](NP(=O)(O)O[C@@H]1O[C@@H](C)[C@H](O)[C@@H](O)[C@H]1O)C(=O)N[C@@H](Cc1c[nH]c2ccccc12)C(=O)O` [Phosphoramidon, phosphoramidon, reference compound], the figures for the “Percent Inhibition” value in the series on elastase (30 nM) and in the series on elastase (100 uM) were 43% and 96%, respectively.

Values taken from US20130059772A1, “Use of Repeat Sequence Protein Polymers in Personal Care Compositions” (DANISCO US INC., priority 2003, published 2013).
